Measurements from PMC5454954, “BDNF Binds Its Pro-Peptide with High Affinity and the Common Val66Met Polymorphism Attenuates the Interaction” (International Journal of Molecular Sciences, 2017).
Substitutions are numbered along the chain they refer to.

Tests used:
[1] = target: BDNF pro-peptide, Val66 (wild type; Val-pro-peptide) (UniProt P23560); test: Surface plasmon resonance (BIAcore 2000); details: pH 7.4; 20 °C; 0.15 M NaCl; HBS-EP: 0.01 M HEPES (pH 7.4). For Figure 2c the same buffer was adjusted to pH 6.5 or 7.0 with HCl.
[2] = target: BDNF pro-peptide, Met66 (Val66Met polymorphism; Met-pro-peptide) V66M (UniProt P23560); test: Surface plasmon resonance (BIAcore 2000); details: pH 7.4; 20 °C; 0.15 M NaCl; HBS-EP: 0.01 M HEPES (pH 7.4). For Figure 2c the same buffer was adjusted to pH 6.5 or 7.0 with HCl.
[3] = target: T1, recombinant wild-type BDNF pro-peptide (Val at position 66) (human, UniProt P23560 19-128); test: SPR
T1 chain: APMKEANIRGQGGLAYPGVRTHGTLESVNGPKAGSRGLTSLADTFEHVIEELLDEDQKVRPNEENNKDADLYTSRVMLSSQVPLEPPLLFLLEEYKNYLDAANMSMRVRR

[4] = target: T2, recombinant BDNF pro-peptide with the Met substitution at position 66 (Val66Met) (human, UniProt P23560 19-128, Val66Met); test: SPR; BIAcore 2000; BDNF pro-peptide (Val or Met) amine-coupled to a CM5 chip at about 2000 RU; neurotrophins and other proteins flowed over; 20 °C, 20 µL/min; HBS-EP (0.01 M HEPES pH 7.4, 0.15 M NaCl, 3 mM EDTA, 0.005% Surfactant P20); details: both partners purified
T2 construct: BDNF pro-peptide, residues 19-128 of human precursor BDNF, with the common polymorphism Val66Met; Vector pET-19b; also called Met-BDNF pro-peptide; Met-pro-peptide; source: E. coli BL21 (DE3) pLysS, purified by liquid chromatography
T2 sequence (looked up): T1 chain with V48M

[5] = target: T3, recombinant wild-type BDNF pro-peptide (Val at position 66) (human, UniProt P23560 19-128); test: as above; details: both partners purified
T3 construct: BDNF pro-peptide, residues 19-128 of human precursor BDNF; Vector pET-19b; also called Val-BDNF pro-peptide; Val-pro-peptide; source: E. coli BL21 (DE3) pLysS, purified by liquid chromatography
T3 sequence (looked up): T1 chain

Brain-derived neurotrophic factor (mature BDNF)
ka [1]: 378000 M⁻¹ s⁻¹
kd [1]: 0.0159 s⁻¹
ka [2]: 36300 M⁻¹ s⁻¹
kd [2]: 0.000444 s⁻¹

B1: recombinant human neurotrophin-4 (NT-4) (ligand)
chain: GVSETAPASRRGELAVCDAVSGWVTDRRTAVDLRGREVEVLGEVPAAGGSPLRQYFFETRCKADNAEEGGPGAGGGGCRGVDRRHWVSECKAKQSYVRALTADAQGRVGWRWIRIDTACVCTLLSRTGRA
Kd [3]: 230 nM

B2: brain-derived neurotrophic factor (BDNF), recombinant human (ligand)
chain: HSDPARRGELSVCDSISEWVTAADKKTAVDMSGGTVTVLEKVPVSKGQLKQYFYETKCNPMGYTKEGCRGIDKRHWNSQCRTTQSYVRALTMDSKKRIGWRFIRIDTSCVCTLTIKRGR
modifications: mature BDNF; non-covalent homodimer, three intrachain disulfides per chain; a recombinant N-terminal Met is not stated
Kd [4]: 12.2 nM
koff [4]: 0.000444 s⁻¹
kon [4]: 36300 M⁻¹ s⁻¹
Kd [5]: 42.1 nM
koff [5]: 0.0159 s⁻¹
kon [5]: 378000 M⁻¹ s⁻¹
